Assay results taken from patent US20170283470A1 (OXFORD NANOPORE TECHNOLOGIES, published 2017).

B1: CsgG (wild-type E. coli CsgG, outer membrane localized, C-terminally StrepII-tagged, membrane-extracted nonameric pore) (other)
chain: CLTAPPKEAARPTLMPRAQSYKDLTHLPAPTGKIFVSVYNIQDETGQFKPYPASNFSTAVPQSATAMLVTALKDSRWFIPLERQGLQNLLNERKIIRAAQENGTVAINNRIPLQSLTAANIMVEGSIIGYESNVKSGGVGARYFGIGADTQYQLDQIAVNLRVVNVSTGEILSSVNTSKTILSYEVQAGVFRFIDYQRLLEGEVGYTSNEPVMLCLMSAIETGVIFLINDGIDRGLWDLQNKAERQNDILVKYRHMSVPPES
modifications: N-terminal Cys of the mature protein triacylated (lipidated), as described in paragraph 145
notes: Produced from pPG1 in E. coli BL21(DE3) and extracted from outer membranes with detergent; It was amphipol A8-35-solubilized for native PAGE and EM, and reconstituted in planar phospholipid bilayers for single-channel recordings; also called CsgG channel; CsgG pore; not shown: C-terminal StrepII tag of construct pPG1

Experiments:
[1] = target: the molecule itself; assay: crystal structure, size-exclusion chromatography, EM and single-channel recordings
[2] = target: B1; assay: SYPRO orange fluorescence of CsgE and CsgG bands on SDS-PAGE of the complex band cut from native PAGE

Binder	binding result [1]	CsgG/CsgE ratio (stoichiometry of the complex) [2]
B1	binds	
CsgE (periplasmic accessory factor CsgE, his-tagged, CsgE-his) (other, Added as purified monomeric CsgE; also called specificity factor CsgE; not shown: his tag (CsgE-his from pNH27)) VEVEVPGLLTDHTVSSIGHDFYRAFSDKWESDYTGNLTINERPSARWGSWITITVNQDVIFQTFLFPLKRDFEKTVVFALIQTEEALNRRQINQALLSTGDLAHDEF		0.97
